Several values for one entry are separate records, joined by “and”; a condition that tells them apart may be missing. Identical values can stand only once.
Tests used:
Test in all cases: competition
Conditions in all cases: modification not given
[1] = biological target: HLA-B*3501 (human), P01889
[2] = biological target: HLA-B*3501 (human), P01889; remark: listed apart in the source
[3] = biological target: HLA-B*5301 (human), P01889
[4] = biological target: HLA-B*5101 (human), P01889
[5] = biological target: HLA-B*5401 (human), P01889
[6] = biological target: T1, H-2Ld (mouse)
T1 chain 1: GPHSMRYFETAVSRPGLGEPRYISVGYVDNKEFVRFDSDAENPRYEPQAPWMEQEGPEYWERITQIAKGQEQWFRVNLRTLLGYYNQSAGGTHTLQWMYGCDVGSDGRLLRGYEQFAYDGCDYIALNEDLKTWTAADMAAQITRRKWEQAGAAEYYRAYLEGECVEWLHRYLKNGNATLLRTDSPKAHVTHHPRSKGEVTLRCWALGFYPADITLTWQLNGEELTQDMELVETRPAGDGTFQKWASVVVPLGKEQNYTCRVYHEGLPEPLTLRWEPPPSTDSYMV
T1 chain 2: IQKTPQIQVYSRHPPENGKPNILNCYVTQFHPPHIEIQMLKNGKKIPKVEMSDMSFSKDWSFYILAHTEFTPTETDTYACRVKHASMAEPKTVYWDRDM

[7] = biological target: T2, H-2Db (mouse)
T2 chain 1: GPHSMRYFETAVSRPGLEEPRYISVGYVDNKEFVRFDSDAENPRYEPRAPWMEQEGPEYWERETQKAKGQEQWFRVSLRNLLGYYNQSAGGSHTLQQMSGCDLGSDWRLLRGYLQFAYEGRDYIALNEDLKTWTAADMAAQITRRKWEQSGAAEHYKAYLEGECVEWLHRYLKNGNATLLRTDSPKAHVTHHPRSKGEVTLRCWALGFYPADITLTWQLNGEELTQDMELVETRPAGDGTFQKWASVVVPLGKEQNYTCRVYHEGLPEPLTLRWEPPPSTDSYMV
T2 chain 2: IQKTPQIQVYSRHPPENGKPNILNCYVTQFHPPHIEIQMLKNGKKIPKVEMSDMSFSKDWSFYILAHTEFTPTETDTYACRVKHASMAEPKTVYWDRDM

[8] = biological target: T3, H-2Kb (mouse)
T3 chain 1: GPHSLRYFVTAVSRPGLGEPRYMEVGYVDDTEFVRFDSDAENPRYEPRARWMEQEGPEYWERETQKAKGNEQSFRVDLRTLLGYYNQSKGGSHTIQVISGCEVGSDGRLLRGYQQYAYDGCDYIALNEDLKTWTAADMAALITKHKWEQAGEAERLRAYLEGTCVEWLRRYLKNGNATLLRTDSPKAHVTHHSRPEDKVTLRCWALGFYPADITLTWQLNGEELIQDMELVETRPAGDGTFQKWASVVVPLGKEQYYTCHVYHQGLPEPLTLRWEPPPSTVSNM
T3 chain 2: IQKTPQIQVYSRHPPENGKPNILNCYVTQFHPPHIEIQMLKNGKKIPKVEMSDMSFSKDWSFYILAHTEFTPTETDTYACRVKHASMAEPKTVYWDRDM

[9] = biological target: T4, H-2Kd (mouse)
T4 chain 1: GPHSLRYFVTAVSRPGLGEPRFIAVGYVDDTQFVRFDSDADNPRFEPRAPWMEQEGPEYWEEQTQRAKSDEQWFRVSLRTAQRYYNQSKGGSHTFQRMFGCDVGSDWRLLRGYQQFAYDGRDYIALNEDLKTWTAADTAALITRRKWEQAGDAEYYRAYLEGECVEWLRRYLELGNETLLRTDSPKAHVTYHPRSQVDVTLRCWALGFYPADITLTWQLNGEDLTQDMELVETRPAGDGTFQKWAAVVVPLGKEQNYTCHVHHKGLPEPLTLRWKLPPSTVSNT
T4 chain 2: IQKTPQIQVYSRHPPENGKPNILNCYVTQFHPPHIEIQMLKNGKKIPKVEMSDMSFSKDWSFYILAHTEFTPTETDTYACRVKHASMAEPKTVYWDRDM

[10] = biological target: T5, H-2Dd (mouse)
T5 chain 1: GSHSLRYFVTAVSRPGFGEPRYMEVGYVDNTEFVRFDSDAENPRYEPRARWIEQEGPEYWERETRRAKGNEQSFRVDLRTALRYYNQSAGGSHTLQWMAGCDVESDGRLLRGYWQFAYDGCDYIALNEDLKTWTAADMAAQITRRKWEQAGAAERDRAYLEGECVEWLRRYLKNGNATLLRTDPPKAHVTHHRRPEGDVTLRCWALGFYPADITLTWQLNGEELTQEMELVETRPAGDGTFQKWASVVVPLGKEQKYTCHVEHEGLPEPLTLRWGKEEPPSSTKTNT
T5 chain 2: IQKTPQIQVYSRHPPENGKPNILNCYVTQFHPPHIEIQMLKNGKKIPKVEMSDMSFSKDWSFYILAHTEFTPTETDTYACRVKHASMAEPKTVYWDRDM

Binder: FPVRPQVPL [HIV nef 84]
- IC50 [1]: 43 nM
- IC50 [2]: 2.2 nM
- IC50 [3]: 92 nM
- IC50 [4]: 12 nM
- IC50 [5]: 71 nM

Binder: RPQASGVYM [LCMV NP 118]
- IC50 [6]: 0.99 nM and 3 nM
- IC50 [7]: > 44000 nM
- IC50 [8]: > 31000 nM

Binder: SIINFEKL [Ova 257]
- IC50 [8]: 3.7 nM and 1.5 nM
- IC50 [9]: > 10000 nM
- IC50 [10]: > 37000 nM

Binder: KAVYNFATM [LCMV GP 33]
- IC50 [6]: > 27000 nM

Binder: YPHFMPTNL [1164.03]
- IC50 [6]: 7.5 nM

Reference: patent publication US9340577
